Measurements published in patent US20180356429A1.

How the values were obtained:
[1] = target: Recombinant human IL-13 (R&D Systems, MN, catalog no. 213-ILB/CF) (human) (UniProt P35225); test: sandwich pair screen, 100 pg/mL recombinant IL-13, binder is detection Ab; capture Ab MILR1444A
[2] = target: Recombinant human IL-13 (R&D Systems, MN, catalog no. 213-ILB/CF) (human) (UniProt P35225); test: sandwich pair screen, 100 pg/mL recombinant IL-13, binder is detection Ab; capture Ab 4D7
[3] = target: Recombinant human IL-13 (R&D Systems, MN, catalog no. 213-ILB/CF) (human) (UniProt P35225); test: sandwich pair screen, 100 pg/mL recombinant IL-13, binder is detection Ab; capture Ab 8C11
[4] = target: Recombinant human IL-13 (R&D Systems, MN, catalog no. 213-ILB/CF) (human) (UniProt P35225); test: sandwich pair screen, 100 pg/mL recombinant IL-13, binder is detection Ab; capture Ab 11H4
[5] = target: Recombinant human IL-13 (R&D Systems, MN, catalog no. 213-ILB/CF) (human) (UniProt P35225); test: sandwich pair screen, negative (blank) signal, binder is detection Ab; capture Ab 4D7
[6] = target: Recombinant human IL-13 (R&D Systems, MN, catalog no. 213-ILB/CF) (human) (UniProt P35225); test: sandwich pair screen, 100 pg/mL recombinant IL-13, binder is detection Ab; capture Ab 32116
[7] = target: Recombinant human IL-13 (R&D Systems, MN, catalog no. 213-ILB/CF) (human) (UniProt P35225); test: sandwich pair screen, negative (blank) signal, binder is detection Ab; capture Ab 228B/C
[8] = target: Recombinant human IL-13 (R&D Systems, MN, catalog no. 213-ILB/CF) (human) (UniProt P35225); test: sandwich pair screen, 100 pg/mL recombinant IL-13, binder is detection Ab; capture Ab 14C9
[9] = target: Recombinant human IL-13 (R&D Systems, MN, catalog no. 213-ILB/CF) (human) (UniProt P35225); test: sandwich pair screen, negative (blank) signal, binder is detection Ab; capture Ab 8C11
[10] = target: Recombinant human IL-13 (R&D Systems, MN, catalog no. 213-ILB/CF) (human) (UniProt P35225); test: sandwich pair screen, negative (blank) signal, binder is detection Ab; capture Ab 32116
[11] = target: Recombinant human IL-13 (R&D Systems, MN, catalog no. 213-ILB/CF) (human) (UniProt P35225); test: sandwich pair screen, negative (blank) signal, binder is detection Ab; capture Ab MILR1444A
[12] = target: Recombinant human IL-13 (R&D Systems, MN, catalog no. 213-ILB/CF) (human) (UniProt P35225); test: sandwich pair screen, 100 pg/mL recombinant IL-13, binder is detection Ab; capture Ab 228B/C
[13] = target: Recombinant human IL-13 (R&D Systems, MN, catalog no. 213-ILB/CF) (human) (UniProt P35225); test: sandwich pair screen, negative (blank) signal, binder is detection Ab; capture Ab 11H4
[14] = target: Recombinant human IL-13 (R&D Systems, MN, catalog no. 213-ILB/CF) (human) (UniProt P35225); test: sandwich pair screen, negative (blank) signal, binder is detection Ab; capture Ab 14C9

Recombinant human IL-13 (R&D Systems, MN, catalog no. 213-ILB/CF) (human), sequence (P35225 other isoform, or with tags, fused parts or gaps): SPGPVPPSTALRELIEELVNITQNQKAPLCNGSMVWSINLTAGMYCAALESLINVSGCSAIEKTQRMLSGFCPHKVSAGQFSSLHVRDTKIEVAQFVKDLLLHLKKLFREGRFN

Assay Signal Pos [1]: 47.2 | Assay Signal Pos [2]: 23.6 | Assay Signal Pos [3]: 4.1 | Assay Signal Pos [4]: 2310 | Assay Signal Neg (blank) [5]: 21.7 | Assay Signal Pos [6]: 18.2 | Assay Signal Neg (blank) [7]: 26.5 | Assay Signal Pos [8]: 33.2 | Assay Signal Neg (blank) [9]: 3.9 | Assay Signal Neg (blank) [10]: 17.2 | Assay Signal Neg (blank) [11]: 0.3 | Assay Signal Pos [12]: 52.7 | Assay Signal Neg (blank) [13]: 23.2 | Assay Signal Neg (blank) [14]: 30
Substance: MAB213 (R&D Systems, MN, Cat. No. MAB213) (antibody)
